Data reported in patent US20040248211A1, “ICAM-related protein” (priority 1992, published 2004).

T1: ICAM-R (Homo sapiens, UniProt P32942)
T1 construct: express the full length ICAM-1 and ICAM-R proteins, respectively; expressed in transfected cells; host or cells: COS cells, DEAE-dextran, plasmid pcDNA1AmpICAM-R
T1 sequence (P32942 30-547): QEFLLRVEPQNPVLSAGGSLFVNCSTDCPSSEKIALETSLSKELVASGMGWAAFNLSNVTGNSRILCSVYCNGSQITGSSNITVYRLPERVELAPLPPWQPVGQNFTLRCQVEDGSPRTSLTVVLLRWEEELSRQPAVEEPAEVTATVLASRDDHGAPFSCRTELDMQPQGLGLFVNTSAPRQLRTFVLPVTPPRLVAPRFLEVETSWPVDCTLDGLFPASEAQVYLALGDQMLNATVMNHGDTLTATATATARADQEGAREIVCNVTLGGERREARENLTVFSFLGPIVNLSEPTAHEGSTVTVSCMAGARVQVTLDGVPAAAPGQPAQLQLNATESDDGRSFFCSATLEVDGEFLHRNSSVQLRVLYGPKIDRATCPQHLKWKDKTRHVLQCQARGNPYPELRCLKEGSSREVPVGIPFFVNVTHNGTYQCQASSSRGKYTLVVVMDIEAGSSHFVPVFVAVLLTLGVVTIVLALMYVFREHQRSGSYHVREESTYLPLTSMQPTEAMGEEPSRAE


What was measured:
resting lymphocytes = assay: Restoration of anti-CD3 proliferation by IL-2; format: cell-based; conditions: human rIL-2 30 U/ml
Procedure: Human PBL were fractionated and incubated on immobiized monoclonal antibodies as described in Section I above. The cells were collected, washed and replated on anti-CD3 either in the presence or absence of human rIL-2 at 30 U/ml.

Jurkat T leukemic cells = assay: F-actin and G-actin cell content; format: cell-based, human
Procedure: Cellular shape changes (such as cell spreading) as well as T-cell activation are associated with changes in the cytoskeletal actin network manifested by alteration of the ratio of globular actin (G-actin) to filamentous actin (F-actin). To test whether the engagement by ICAM-R antibodies of ICAM-R expressed on Jurkat T leukemic cells would induce changes in cellular actin ratios, studies measuring F-actin and G-actin cell content were carried out by methods known in the art.

ICAM-R = molecular target: T1, ICAM-R; assay: FACS binding to COS cell transfectants; conditions: antibody 5.0 ug/ml
Procedure: (§1) For the anti-ICAM-R monoclonal antibody binding assay, COS cells transfected with constructs encoding the ICAM-R chimeric proteins or control constructs were removed from the plates by EDTA treatment and aliquoted at 2.5×10^5 cells per well in a 96-well round bottom plate. Cells were washed 3 times with ice cold washing buffer (PBS containing 1% BSA and 0.05% sodium azide). Anti-ICAM-R monoclonal antibody was applied at 5.0 ug/ml in 50 ul final volume and incubated on ice for 30 minutes. Cells were then washed three times with cold washing buffer and incubated with the FITC labeled secondary antibody (sheep anti-mouse IgG F(ab′)2) at a 1:100 dilution on ice for 30 minutes in dark in 50 ul final volume. After the incubation, cells were washed again for three times in the ice cold washing buffer and resuspended in 200 ul of 1% paraformaldehyde. The samples were analyzed on a Becton-Dickinson FACScan instrument. Results of the assay are given below in Table 5 as percent positive COS cell transfectants, wherein MOPC 21 (IgG1) and UPC 10 (IgG2a) are isotype matched controls, 18E3D is an ICAM-1 specific monoclonal antibody and ICR-1.1 to ICR-9.2 are ICAM-R specific monoclonal antibodies. The reactivities of monoclonal antibodies ICR-1.1 through ICR-9.2 were assayed in a different experiment than monoclonal antibodies ICR-12.1 through ICR-17.1.

ICAM-1 = molecular target: T2, ICAM-1 (Homo sapiens, UniProt P05362); assay: FACS binding to COS cell transfectants; conditions: antibody 5.0 ug/ml
T2 construct: express the full length ICAM-1 and ICAM-R proteins, respectively; expressed in transfected cells; host or cells: COS cells, DEAE-dextran, plasmid pcDNA1AmpICAM-1
T2 sequence (P05362 28-532): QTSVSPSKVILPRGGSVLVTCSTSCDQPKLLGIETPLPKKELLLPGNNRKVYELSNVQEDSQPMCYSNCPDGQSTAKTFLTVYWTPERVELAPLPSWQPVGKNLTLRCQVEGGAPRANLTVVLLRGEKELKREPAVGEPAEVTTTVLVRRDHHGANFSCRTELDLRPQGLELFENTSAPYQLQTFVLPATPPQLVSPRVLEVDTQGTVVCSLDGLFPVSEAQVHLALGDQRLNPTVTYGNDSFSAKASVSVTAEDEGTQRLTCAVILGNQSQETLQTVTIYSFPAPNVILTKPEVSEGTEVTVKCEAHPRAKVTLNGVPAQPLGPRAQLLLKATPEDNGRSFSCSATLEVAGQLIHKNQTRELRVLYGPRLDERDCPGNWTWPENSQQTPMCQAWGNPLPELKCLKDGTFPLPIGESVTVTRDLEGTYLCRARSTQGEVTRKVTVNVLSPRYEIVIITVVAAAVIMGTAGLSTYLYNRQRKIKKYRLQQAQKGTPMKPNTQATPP
Procedure: as §1

human basophils = assay: Basophil histamine release; format: cell-based; conditions: added simultaneously with anti-IgE 0.01 μg/ml
Text: Basophils were obtained at low purity by dextran sedimentation of erythrocytes in EDTA-anti-coagulated peripheral venous blood, at slightly enriched percentages from mononuclear cell layers of density gradient Percoll centrifugation preparations, and at high purity (>70%) from leukophoresis packs following clutriation and density gradient centrifugation. In the assays, polyclonal goat anti-human IgE and ICAM-R monoclonals antibodies ICR-1.1, ICR-2.1, ICR-4.2 and ICR-8.1 were used alone or in combination. The […] was used to induce histamine release which was quantitated using an automated fluorometric assay after a 45 minute incubation with secretagogue. LTC4 production was measured by radioimmunoassay as previously described in Schleimer et al., J. Immunol., 143:1310-1317 (1989), while IL-4 in cell supernatants was assayed using the IL-4 Quantikine ELSA kit (R&D Systems, Minneapolis, Minn.). Basophil adhesion to unstimulated or IL-1 treated monolayers of human umbilical vein endothelial cells was examined as previously described in Bochner et al., J. Clin. Invest., 81: 1355-1360 (1988) and Bochner et al., J. Immunol., 142: 3180-3186 (1989), in the presence or absence of ICR-2.1 monoclonal antibody. […]

Molecule	proliferative response to anti-CD3 after prepulse, with added IL-2 (resting lymphocytes)	time to peak F-actin content (Jurkat T leukemic cells; OKT3 plus gam, ICR-1.1 without gam)	F-actin content (Jurkat T leukemic cells; OKT3 plus goat anti-mouse crosslinker (gam), ICR-1.1 without gam)	cellular G-actin (Jurkat T leukemic cells; with gam crosslinker)	rise of F-actin content (Jurkat T leukemic cells; with gam crosslinker, prolonged plateau)	percent positive COS cell transfectants, ICAM-R (ICAM-R)	percent positive COS cell transfectants, ICAM-1 (ICAM-1)	anti-IgE-induced histamine release (human basophils)
ICR-1.1: anti-ICAM-R monoclonal antibody, IgG2a, domain 1, ATCC HB 11053 (antibody, V domains shown) VH: QVQLQQSGAELAKPGASVKMSCKASGYTFTVYWMHWVKQRPGQGLEWIGYINPNTDYTEYNQRFQDKATLTADKSSSTAYMQLSSLTSEDSAVYYCARWGGNSYGLDYWGQGTSVTVSS VL: QIVLTQSPALMSASPGEKVTMTCSASSSVSYIYWYQQKPRSSPKPWIYLTSNLASGVPARFSGSGSGASYSLTISIMEAEDAATYYCQQWKSIPLTFGAGTKLELK	completely restored proliferative responses	≤ 60 min	slight transient increase in F-actin content	gradual decrease in cellular G-actin	75-100%	54.33%	2.43%	–
ICR-8.1: anti-ICAM-R monoclonal antibody, IgG1, domain 1, ATCC HB 11232 (antibody, V domains shown) VH: EIQLQQTGPELVKPGASVKISCKASGYSFTDCIILWVKQSHGKGLEWIGKINPYFGTTTYNLKFKGKATLTVDKSSSTAHMQLNSLTSEDSAVYYCARKEAYPDAMDYWGQGTSVTVSS VL: DAVMTQTPLSLPVSLGDQASISCRSSQSLVHSNGDTYLHWYLQKPGQSPQLLIYKVSNRFSGVPDRFSGSGSGTDFTLKLSRVEAEDLGVYFCSQSTHVPYTFGGGTKLEIK	–	–	–	–	–	–	–	neither ICR-8.1 nor the domain 2-specific monoclonal antibody ICR-4.2 had any significant potentiating activity
